Measurements reported in patent publication US20240226163A1 (Regeneron, published 2024).

Tests used:
Assay in all cases: cell-based or functional assay
[1] = molecular target: HLA-A*02:01 presenting SHTN1 198-206 peptide (…) (human)
[2] = molecular target: HLA-A*02:01 presenting CNOT1 1965-1973 peptide (…) (human)
[3] = molecular target: HLA-A*02:01 presenting AOX1 795-803 peptide (…) (human)
[4] = molecular target: HLA-A*02:01 presenting MRPL37 334-342 peptide (…) (human)
[5] = molecular target: HLA-A*02:01 presenting SMIM11A 4-12 peptide (…) (human)
[6] = molecular target: HLA-A*02:01 presenting NBAS 2063-2071 peptide (…) (human)
[7] = molecular target: HLA-A*02:01 presenting TEP1 2156-2164 peptide (…) (human)
[8] = molecular target: HLA-A*02:01 presenting PCDHGC3 337-345 peptide (…) (human)
[9] = molecular target: HLA-A*02:01 presenting PLEKHH2 790-798 peptide (…) (human)
[10] = molecular target: HLA-A*02:01 presenting PSME2 145-153 peptide (…) (human)
[11] = molecular target: HLA-A*02:01 presenting RABGAP1L 408-416 peptide (…) (human)
[12] = molecular target: HLA-A*02:01 presenting FN1 2182-2190 peptide (…) (human)
[13] = molecular target: HLA-A*02:01 presenting CARD8 170-178 peptide (…) (human)
[14] = molecular target: HLA-A*02:01 presenting HEATR5A 1925-1933 peptide (…) (human)
[15] = molecular target: HLA-A*02:01 presenting MAGE-A4 286-294 peptide (…) (human)
[16] = molecular target: HLA-A*02:01 presenting MAGE-A4 286-294 peptide (…) (human); remark: listed apart in the source
[17] = molecular target: HLA-A*02:01 presenting MAGE-A4 286-294 peptide (…) (human); remark: listed apart in the source

B1: bsAb6054 (bispecific antibody, V domains shown)
VH 1: QVQLVESGGGLVKPGGSLRLSCAASGFTFSEYYLTWIRQAPGKGLDWIAYISSSGYNIYYADSVKDRFTISRDNGKNSLFLQMNNLRAEDTAVYFCAREGVTDGMDVWGQGTTVTVSS
VH 2: EVQLVESGGGLVQPGRSLRLSCAASGFTFADYTMHWVRQAPGKGLEWVSDISWNSGSIAYADSVKGRFTISRDNAKNSLYLQMNSLRTEDTAFYYCAKDSRGYGHYKYLGLDVWGQGTTVTVSS
VL: DIQMTQSPSSLSASVGDRVTITCRASQSIDTFLNWYQQKPGKVPKLLIYAASNLESGVPSRFSGSGSGTVFTLTISRLQPEDFATYYCQQSYSIPPITFGQGTRVEIK
With B1 the “EC50 (M), Jurkat/NF-κB-Luc reporter with pulsed T2 cells” value (“EC50 (M), Jurkat/NF-κB-Luc reporter” below) [1] was 1.3e-09 M, the “Fold change, Jurkat/NF-κB-Luc reporter with pulsed T2 cells” value (“Fold change, Jurkat/NF-κB-Luc reporter” for short) [1] was 81.1 fold and the “EC50 (M), Jurkat/NF-κB-Luc reporter” value [2] was > 2e-08 M. For the same binder, the “Fold change, Jurkat/NF-κB-Luc reporter” value [2] was 1 fold, the “EC50 (M), Jurkat/NF-κB-Luc reporter” value [3] was 2.1e-11 M and the “Fold change, Jurkat/NF-κB-Luc reporter” value [3] was 36 fold. For the same binder, the “EC50 (M), Jurkat/NF-κB-Luc reporter” value [4] was > 2e-08 M, the “Fold change, Jurkat/NF-κB-Luc reporter” value [4] was 2.4 fold and the “EC50 (M), Jurkat/NF-κB-Luc reporter” value [5] was > 2e-08 M. The “Fold change, Jurkat/NF-κB-Luc reporter” value [5] was 1 fold, the “EC50 (M), Jurkat/NF-κB-Luc reporter” value [6] was > 2e-08 M and the “Fold change, Jurkat/NF-κB-Luc reporter” value [6] was 1.3 fold. For the same binder, the “EC50 (M), Jurkat/NF-κB-Luc reporter” value [7] was > 2e-08 M, the “Fold change, Jurkat/NF-κB-Luc reporter” value [7] was 1.2 fold and the “EC50 (M), Jurkat/NF-κB-Luc reporter” value [8] was > 2e-08 M. For the same binder, the “Fold change, Jurkat/NF-κB-Luc reporter” value [8] was 1 fold, the “EC50 (M), Jurkat/NF-κB-Luc reporter” value [9] was > 2e-08 M and the “Fold change, Jurkat/NF-κB-Luc reporter” value [9] was 2.8 fold. The “EC50 (M), Jurkat/NF-κB-Luc reporter” value [10] was > 2e-08 M, the “Fold change, Jurkat/NF-κB-Luc reporter” value [10] was 1 fold and the “EC50 (M), Jurkat/NF-κB-Luc reporter” value [11] was > 2e-08 M. For the same binder, the “Fold change, Jurkat/NF-κB-Luc reporter” value [11] was 1 fold, the “EC50 (M), Jurkat/NF-κB-Luc reporter” value [12] was > 2e-08 M and the “Fold change, Jurkat/NF-κB-Luc reporter” value [12] was 1 fold. The “EC50 (M), Jurkat/NF-κB-Luc reporter” value [13] was > 2e-08 M, the “Fold change, Jurkat/NF-κB-Luc reporter” value [13] was 1.2 fold and the “EC50 (M), Jurkat/NF-κB-Luc reporter” value [14] was > 2e-08 M. The “Fold change, Jurkat/NF-κB-Luc reporter” value [14] was 1.2 fold, the “EC50 (M), Jurkat/NF-κB-Luc reporter” value [15] was 2e-12 M and the “Fold change, Jurkat/NF-κB-Luc reporter” value [15] was 78.7 fold. For the same binder, the “EC50, NF-κB luciferase, Jurkat/NF-κB Luc + IM-9” value [16] was 0.74 nM, the “EC50, NF-κB luciferase, Jurkat/NF-κB Luc + U266” value [16] was 3.1 nM and the “Fold Activation, NF-κB luciferase, Jurkat/NF-κB Luc + IM-9” value [16] was 41.9 fold. The “Fold Activation, NF-κB luciferase, Jurkat/NF-κB Luc + U266” value [16] was 6.3 fold, the “EC50, NF-κB luciferase, Jurkat + IM-9, with 2 nM mAb5705 (anti-CD28)” value [17] was 2.1 nM and the “EC50, NF-κB luciferase, Jurkat + U266, with 2 nM mAb5705 (anti-CD28)” value [17] was 6.1 nM. For the same binder, the “Fold Activation, NF-κB luciferase, Jurkat + IM-9, with 2 nM mAb5705 (anti-CD28)” value [17] was 28.7 fold and the “Fold Activation, NF-κB luciferase, Jurkat + U266, with 2 nM mAb5705 (anti-CD28)” value [17] was 8.6 fold.
